The results in this text go back to patent publication US20220275046A1 (published 2022).

In this assay the target is T1, MAGE-A2 peptide on HLA-DPA1*01:03 / HLA-DPB1*04:01 (human).
T1 peptide: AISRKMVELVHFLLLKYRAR
Briefly: multimer staining.

B1: 06-MAGE-A2108-127 TCR (TCR, V domains shown)
Valpha: QKVTQAQTEISVVEKEDVTLDCVYETRDTTYYLFWYKQPPSGELVFLIRRNSFDEQNEISGRYSWNFQKSTSSFNFTITASQVVDSAVYFCALSVGTYKYIFGTGTRLKVLA
Vbeta: DTGVSQNPRHKITKRGQNVTFRCDPISEHNRLYWYRQTLGQGPEFLTYFQNEAQLEKSRLLSDRFSAERPKGSFSTLEIQRTEQGDSAMYLCASSPGTGGRETQYFGPGTRLLVL
Regarding B1, the binding result was “recognises”.
